Test results taken from article PMC10570127 (The Journal of Biological Chemistry, 2023).

Tests used:
[1] = test system: CC(=O)N[C@H]1[C@H](Oc2ccc([N+](=O)[O-])cc2)O[C@H](COS(=O)(=O)O)[C@@H](O)[C@@H]1O; test: Michaelis-Menten kinetics of hydrolysis by purified mutant; assay type: biochemical, Streptococcus pneumoniae; settings: active site; pH 7.0
[2] = test system: CC(=O)N[C@H]1[C@H](Oc2ccc3c(C)cc(=O)oc3c2)O[C@H](COS(=O)(=O)O)[C@@H](O)[C@@H]1O; test: as above; assay type: biochemical, Streptococcus pneumoniae; settings: active site; pH 7.0
Sp_0475 = biological target: T1, Sp_0475 (Streptococcus pneumoniae, UniProt A0A0H2UNN2); assay type: biochemical
T1 sequence (A0A0H2UNN2 1-646): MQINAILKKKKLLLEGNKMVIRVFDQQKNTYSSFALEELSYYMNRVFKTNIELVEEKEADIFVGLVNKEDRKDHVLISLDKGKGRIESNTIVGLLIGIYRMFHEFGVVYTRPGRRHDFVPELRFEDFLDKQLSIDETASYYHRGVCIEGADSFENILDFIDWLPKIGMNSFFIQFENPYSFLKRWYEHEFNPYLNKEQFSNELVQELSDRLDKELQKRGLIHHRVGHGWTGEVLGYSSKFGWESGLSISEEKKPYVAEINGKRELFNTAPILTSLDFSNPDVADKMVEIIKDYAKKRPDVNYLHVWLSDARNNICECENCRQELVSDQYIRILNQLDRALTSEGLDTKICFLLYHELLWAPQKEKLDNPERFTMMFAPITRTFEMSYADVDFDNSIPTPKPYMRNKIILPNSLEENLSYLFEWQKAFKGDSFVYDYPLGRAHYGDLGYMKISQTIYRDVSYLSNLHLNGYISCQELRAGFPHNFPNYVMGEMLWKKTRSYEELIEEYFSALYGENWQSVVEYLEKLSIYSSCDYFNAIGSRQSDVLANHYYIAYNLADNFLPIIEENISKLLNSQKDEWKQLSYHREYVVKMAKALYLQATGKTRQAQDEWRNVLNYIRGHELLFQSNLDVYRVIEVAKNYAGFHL

purified protein [3] = substrate: CC(=O)N[C@H]1[C@H](Oc2ccc3c(C)cc(=O)oc3c2)O[C@H](COS(=O)(=O)O)[C@@H](O)[C@@H]1O; test: purified protein; settings: active site; pH 7.0
purified protein [4] = substrate: CC(=O)N[C@H]1[C@H](Oc2ccc([N+](=O)[O-])cc2)O[C@H](COS(=O)(=O)O)[C@@H](O)[C@@H]1O; test: purified protein; settings: active site; R633 interacts with the sulfate; pH 7.0

Molecule “Sp_0475 (Streptococcus pneumoniae TIGR4; Y436F)” has a Km [1] of 57 ± 4 µM, a kcat [1] of 0.15 ± 0.002 s⁻¹ and a kcat/Km [1] of 3000 ± 500 M⁻¹ s⁻¹.

“Sp_0475 (Streptococcus pneumoniae TIGR4; D309A)” showed a Km [1] of 4.0 ± 0.1 µM, a Km [2] of 1.5 ± 0.1 µM and a kcat [2] of 0.007 ± 0.0001 s⁻¹. The kcat/Km [2] was 4000 ± 1000 M⁻¹ s⁻¹.

`CC1=N[C@@H]2[C@@H](O)[C@H](O)[C@@H](CO)O[C@@H]2S1` [GlcNAc-thiazoline] gave a Ki (Sp_0475) of 6.6 ± 0.2 mM.

B1: Sp_0475 (Streptococcus pneumoniae TIGR4) (protein)
chain: MQINAILKKKKLLLEGNKMVIRVFDQQKNTYSSFALEELSYYMNRVFKTNIELVEEKEADIFVGLVNKEDRKDHVLISLDKGKGRIESNTIVGLLIGIYRMFHEFGVVYTRPGRRHDFVPELRFEDFLDKQLSIDETASYYHRGVCIEGADSFENILDFIDWLPKIGMNSFFIQFENPYSFLKRWYEHEFNPYLNKEQFSNELVQELSDRLDKELQKRGLIHHRVGHGWTGEVLGYSSKFGWESGLSISEEKKPYVAEINGKRELFNTAPILTSLDFSNPDVADKMVEIIKDYAKKRPDVNYLHVWLSDARNNICECENCRQELVSDQYIRILNQLDRALTSEGLDTKICFLLYHELLWAPQKEKLDNPERFTMMFAPITRTFEMSYADVDFDNSIPTPKPYMRNKIILPNSLEENLSYLFEWQKAFKGDSFVYDYPLGRAHYGDLGYMKISQTIYRDVSYLSNLHLNGYISCQELRAGFPHNFPNYVMGEMLWKKTRSYEELIEEYFSALYGENWQSVVEYLEKLSIYSSCDYFNAIGSRQSDVLANHYYIAYNLADNFLPIIEENISKLLNSQKDEWKQLSYHREYVVKMAKALYLQATGKTRQAQDEWRNVLNYIRGHELLFQSNLDVYRVIEVAKNYAGFHL
B1 was tested, and the Km (purified protein [3]) was 264 ± 7 µM, the kcat (purified protein [3]) was 55 ± 0.4 s⁻¹ and the kcat/Km (purified protein [3]) was 210000 ± 60000 M⁻¹ s⁻¹. For the same molecule, the Km (purified protein [4]) was 250 ± 4 µM, the kcat (purified protein [4]) was 65 ± 0.3 s⁻¹ and the kcat/Km (purified protein [4]) was 260000 ± 80000 M⁻¹ s⁻¹.
